# From paper PMC6300691, “Enhancement of Heat Stability and Kinetic Parameters of the Maize Endosperm ADP-Glucose Pyrophosphorylase by Mutagenesis of Amino Acids in the Small Subunit With High B Factors” (Frontiers in Plant Science, 2018)
# Read-outs that look alike come from different tables or passages of the source.
# B1: wt: wild type maize endosperm AGPase: SH2 large subunit with BT2 small subunit, expressed in E. coli (protein, UniProt P55241 46-516; P55241 46-516, looked up)
# Glucose-1-phosphate … 1: FGGRVAATTQCILTSDACPETLHSQTQSSRKNYADANRVSAIILGGGTGSQLFPLTSTRATPAVPVGGCYRLIDIPMSNCFNSGINKIFVMSQFNSTSLNRHIHRTYLEGGINFADGSVQVLAATQMPEEPAGWFQGTADSIRKFIWVLEDYYSHKSIDNIVILSGDQLYRMNYMELVQKHVEDDADITISCAPVDESRASKNGLVKIDHTGRVLQFFEKPKGADLNSMRVETNFLSYAIDDAQKYPYLASMGIYVFKKDALLDLLKSKYTQLHDFGSEILPRAVLDHSVQACIFTGYWEDVGTIKSFFDANLALTEQPSKFDFYDPKTPFFTAPRCLPPTQLDKCKMKYAFISDGCLLRECNIEHSVIGVCSRVSSGCELKDSVMMGADTYETEEEASKLLLAGKVPVGIGRNTKIRNCIIDMNARIGKNVVITNSKGIQEADHPEEGYYIRSGIVVILKNATINDGSVI
# Glucose-1-phosphate … 2: FGGRVAATTQCILTSDACPETLHSQTQSSRKNYADANRVSAIILGGGTGSQLFPLTSTRATPAVPVGGCYRLIDIPMSNCFNSGINKIFVMSQFNSTSLNRHIHRTYLEGGINFADGSVQVLAATQMPEEPAGWFQGTADSIRKFIWVLEDYYSHKSIDNIVILSGDQLYRMNYMELVQKHVEDDADITISCAPVDESRASKNGLVKIDHTGRVLQFFEKPKGADLNSMRVETNFLSYAIDDAQKYPYLASMGIYVFKKDALLDLLKSKYTQLHDFGSEILPRAVLDHSVQACIFTGYWEDVGTIKSFFDANLALTEQPSKFDFYDPKTPFFTAPRCLPPTQLDKCKMKYAFISDGCLLRECNIEHSVIGVCSRVSSGCELKDSVMMGADTYETEEEASKLLLAGKVPVGIGRNTKIRNCIIDMNARIGKNVVITNSKGIQEADHPEEGYYIRSGIVVILKNATINDGSVI
# modifications: expressed in E. coli
# B2: K445R: SH2 large subunit variant K445R (protein, UniProt P55241 46-516, looked up, variant K445R)
# Glucose-1-phosphate …: FGGRVAATTQCILTSDACPETLHSQTQSSRKNYADANRVSAIILGGGTGSQLFPLTSTRATPAVPVGGCYRLIDIPMSNCFNSGINKIFVMSQFNSTSLNRHIHRTYLEGGINFADGSVQVLAATQMPEEPAGWFQGTADSIRKFIWVLEDYYSHKSIDNIVILSGDQLYRMNYMELVQKHVEDDADITISCAPVDESRASKNGLVKIDHTGRVLQFFEKPKGADLNSMRVETNFLSYAIDDAQKYPYLASMGIYVFKKDALLDLLKSKYTQLHDFGSEILPRAVLDHSVQACIFTGYWEDVGTIKSFFDANLALTEQPSKFDFYDPKTPFFTAPRCLPPTQLDKCKMKYAFISDGCLLRECNIEHSVIGVCSRVSSGCELKDSVMMGADTYETEEEASRLLLAGKVPVGIGRNTKIRNCIIDMNARIGKNVVITNSKGIQEADHPEEGYYIRSGIVVILKNATINDGSVI
# B3: P372A: SH2 large subunit variant P372A (protein, UniProt P55241 46-516, looked up, variant P372A)
# Glucose-1-phosphate …: FGGRVAATTQCILTSDACPETLHSQTQSSRKNYADANRVSAIILGGGTGSQLFPLTSTRATPAVPVGGCYRLIDIPMSNCFNSGINKIFVMSQFNSTSLNRHIHRTYLEGGINFADGSVQVLAATQMPEEPAGWFQGTADSIRKFIWVLEDYYSHKSIDNIVILSGDQLYRMNYMELVQKHVEDDADITISCAPVDESRASKNGLVKIDHTGRVLQFFEKPKGADLNSMRVETNFLSYAIDDAQKYPYLASMGIYVFKKDALLDLLKSKYTQLHDFGSEILPRAVLDHSVQACIFTGYWEDVGTIKSFFDANLALTEQPSKFDFYDAKTPFFTAPRCLPPTQLDKCKMKYAFISDGCLLRECNIEHSVIGVCSRVSSGCELKDSVMMGADTYETEEEASKLLLAGKVPVGIGRNTKIRNCIIDMNARIGKNVVITNSKGIQEADHPEEGYYIRSGIVVILKNATINDGSVI
# B4: S444A: SH2 large subunit variant S444A (protein, UniProt P55241 46-516, looked up, variant S444A)
# Glucose-1-phosphate …: FGGRVAATTQCILTSDACPETLHSQTQSSRKNYADANRVSAIILGGGTGSQLFPLTSTRATPAVPVGGCYRLIDIPMSNCFNSGINKIFVMSQFNSTSLNRHIHRTYLEGGINFADGSVQVLAATQMPEEPAGWFQGTADSIRKFIWVLEDYYSHKSIDNIVILSGDQLYRMNYMELVQKHVEDDADITISCAPVDESRASKNGLVKIDHTGRVLQFFEKPKGADLNSMRVETNFLSYAIDDAQKYPYLASMGIYVFKKDALLDLLKSKYTQLHDFGSEILPRAVLDHSVQACIFTGYWEDVGTIKSFFDANLALTEQPSKFDFYDPKTPFFTAPRCLPPTQLDKCKMKYAFISDGCLLRECNIEHSVIGVCSRVSSGCELKDSVMMGADTYETEEEAAKLLLAGKVPVGIGRNTKIRNCIIDMNARIGKNVVITNSKGIQEADHPEEGYYIRSGIVVILKNATINDGSVI
# B5: E438Q: SH2 large subunit variant E438Q (protein, UniProt P55241 46-516, looked up, variant E438Q)
# Glucose-1-phosphate …: FGGRVAATTQCILTSDACPETLHSQTQSSRKNYADANRVSAIILGGGTGSQLFPLTSTRATPAVPVGGCYRLIDIPMSNCFNSGINKIFVMSQFNSTSLNRHIHRTYLEGGINFADGSVQVLAATQMPEEPAGWFQGTADSIRKFIWVLEDYYSHKSIDNIVILSGDQLYRMNYMELVQKHVEDDADITISCAPVDESRASKNGLVKIDHTGRVLQFFEKPKGADLNSMRVETNFLSYAIDDAQKYPYLASMGIYVFKKDALLDLLKSKYTQLHDFGSEILPRAVLDHSVQACIFTGYWEDVGTIKSFFDANLALTEQPSKFDFYDPKTPFFTAPRCLPPTQLDKCKMKYAFISDGCLLRECNIEHSVIGVCSRVSSGCELKDSVMMGADTYQTEEEASKLLLAGKVPVGIGRNTKIRNCIIDMNARIGKNVVITNSKGIQEADHPEEGYYIRSGIVVILKNATINDGSVI
# B6: S444R: SH2 large subunit variant S444R (protein, UniProt P55241 46-516, looked up, variant S444R)
# Glucose-1-phosphate …: FGGRVAATTQCILTSDACPETLHSQTQSSRKNYADANRVSAIILGGGTGSQLFPLTSTRATPAVPVGGCYRLIDIPMSNCFNSGINKIFVMSQFNSTSLNRHIHRTYLEGGINFADGSVQVLAATQMPEEPAGWFQGTADSIRKFIWVLEDYYSHKSIDNIVILSGDQLYRMNYMELVQKHVEDDADITISCAPVDESRASKNGLVKIDHTGRVLQFFEKPKGADLNSMRVETNFLSYAIDDAQKYPYLASMGIYVFKKDALLDLLKSKYTQLHDFGSEILPRAVLDHSVQACIFTGYWEDVGTIKSFFDANLALTEQPSKFDFYDPKTPFFTAPRCLPPTQLDKCKMKYAFISDGCLLRECNIEHSVIGVCSRVSSGCELKDSVMMGADTYETEEEARKLLLAGKVPVGIGRNTKIRNCIIDMNARIGKNVVITNSKGIQEADHPEEGYYIRSGIVVILKNATINDGSVI
# What was measured:
# [1] = tested on: T1, MP + SH2-E; assay: Initial-rate assay without 3-PGA, ATP and G-1-P both varied (0.01-10 mM and 0.1-25 mM), global fit to a sequential mechanism.; type: biochemical; conditions: read-out: G-1-P Km (absence of 3-PGA)
# T1 construct: chimeric small subunit MP (maize 198 / potato 277 amino acids) with SH2-E
# [2] = tested on: T2, MP; assay: as above; type: biochemical; conditions: read-out: G-1-P Km (absence of 3-PGA)
# T2 construct: small subunit of first 198 amino acids of maize BT2 and last 277 of potato tuber small subunit, with wild type SH2
# [3] = tested on: maize endosperm AGPase; assay: Pi inhibition in the absence of 3-PGA; type: biochemical; conditions: for α / β: absence of 3-PGA
# Excerpt: (§1) (2) v=Vm(S/Ks+(βSI)/(αKiKs))/(1+S/Ks+I/Ki+SI/αKiKs)P-MT
# (§2) (3) v=Vm(S/Ks)/(1+S/Ks+I/Ki+SI/αKiKs)L-MT
# [4] = tested on: maize endosperm AGPase; assay: Pi inhibition in the presence of 3-PGA; type: biochemical
# Excerpt: as §1, §2
# [5] = tested on: maize endosperm AGPase; assay: 3-PGA activation constant (Ka), Vmin and Vmax; type: biochemical; conditions: change in activity from Vmin to total velocity with 3-PGA; substrates 2 mM
# Excerpt: All reactions were developed as above.
# [6] = tested on: maize endosperm AGPase; assay: Catalytic activity at 37 and 55°C (end point PPi assay); type: biochemical
# Procedure: Reactions proceeded for 2, 4, 6, 8, 10, and 15 min and were terminated by boiling. Reaction mixes (1300 μl) were pre-warmed to 37°C or 55°C and the assay was started with the addition of the enzyme. Assay time points (200 μl) were removed at the appropriate time and boiled for 2 min. At 37°C all reactions were linear for 15 min; however, at 55°C rates were linear for a shorter duration. A rate was only calculated if the reactions were linear for at least 10 min.
# The amount of PPi produced in the reaction was coupled to a decrease in NADH concentration. Coupling reagent contained 25 mM imidazole pH 7.4, 4 mM MgCl2, 1 mM EDTA, 0.2 mM NADH, 0.725 U aldolase, 0.4 U triose phosphate isomerase, 0.6 U glycerophosphate dehydrogenase, 1 mM fructose 6-phosphate and 0.8 μg purified PPi-PFK per reaction. Blank samples contained complete reaction mixtures minus the enzyme. Change in absorbance between the blank and the reaction was used to calculate the amount of PPi produced. All reactions were linear with time and enzyme concentration.
# [7] = tested on: maize endosperm AGPase; assay: Kinetic values in the absence of 3-PGA; type: biochemical
# Excerpt: (1) v=VAB/(KiaKmb+KmbA+KmaB+AB
# [8] = tested on: E. coli AC70R1-504; conditions: 2015, cited from earlier work
# [9] = target: maize endosperm AGPase; design: method as in Georgelis et al., 2009; Boehlein et al., 2015; conditions: ref Georgelis et al., 2009; Boehlein et al., 2015; cited from earlier work
# [10] = tested on: maize endosperm AGPase; conditions: cited from earlier work
# [11] = tested on: maize endosperm AGPase; conditions: ref Boehlein et al., 2015; cited from earlier work
# [12] = growth at 37 and 42°C, SH2 variants, ref Boehlein et al.
molecule,measurement,setting,value
"O=P(O)(O)O[C@H]1O[C@H](CO)[C@@H](O)[C@H](O)[C@H]1O [G-1-P, glucose-1-phosphate]",Km,[1],0.09 ± 0.008 mM
same,Km,[2],11.9 ± 3 mM
B1,Ki for Pi higher in the absence of 3PGA compared to the presence of 3PGA,[3],5–10 fold
same,α,[3]; varied substrate ATP,0.063 ± 0.034
same,β,[3]; varied substrate ATP,0.52 ± 0.17
same,α,[3]; varied substrate G-1-P,0.095 ± 0.065
same,β,[3]; varied substrate G-1-P,0.92 ± 0.31
same,α,[4]; varied substrate ATP,4.61 ± 0.07
same,β,[4]; varied substrate ATP,0.83 ± 0.037
same,α,[4]; varied substrate G-1-P,0.90 ± 0.012
same,β,[4]; varied substrate G-1-P,0.52 ± 0.023
same,Vmax,[5],6352 ± 540
same,Activity at 37°C,"[6]; 37°C, 5 mM ATP, 2 mM G-1-P, 2.5 mM 3-PGA, purified enzyme from E. coli",5415 ± 268
same,activity at 55°C (in words),[6]; 55°C,not active
same,reduction of the Km values of both substrates by binding of 3PGA,[7]; Km without 3PGA versus with 3PGA,over 50 fold
same,Km,"[7]; absence of 3-PGA, read-out: ATP Km",~4 mM
same,Km,[7]; read-out: G-1-P Km (absence of 3-PGA),3 mM
B2,glycogen staining (in words),[8]; [12],Stained darker at 37 and 42 °C
B3,effect on Ki for phosphate (in words),[9],decreased Ki for phosphate
same,effect on 3-PGA Ka (in words),"[10]; ref Georgelis et al., 2009, Boehlein et al., 2015",Increased 3-PGA Ka
same,glycogen staining (in words),"[8]; ref Georgelis et al., 2009, Boehlein et al.",reduced glycogen staining
B4,effect on 3-PGA Ka (in words),"[10]; ref Boehlein et al., 2014",Did not alter 3-PGA Ka
B5,effect on 3-PGA Ka (in words),"[10]; ref Georgelis et al., 2009",Did not alter 3-PGA Ka
B6,glycogen staining (in words),[8]; [12],Stained darker at 37 and 42°
same,activity at 37° (in words),[11],had higher activity at 37°
